Measured values taken from article PMC8228192, “Parallel and Sequential Pathways of Molecular Recognition of a Tandem-Repeat Protein and Its Intrinsically Disordered Binding Partner” (Biomolecules, 2021).
No end group written: not given here.

T1: ARM repeat domain of human β-catenin (residues 134–671) (human, UniProt P35222 134-671)
T1 construct: β-catenin, human, ARM repeat domain, residues 134–671; Plasmid was a gift from W.I. Weis; source: E. coli C41, purified (glutathione-Sepharose 4B, thrombin cleavage on resin, Mono-Q)
T1 sequence (looked up): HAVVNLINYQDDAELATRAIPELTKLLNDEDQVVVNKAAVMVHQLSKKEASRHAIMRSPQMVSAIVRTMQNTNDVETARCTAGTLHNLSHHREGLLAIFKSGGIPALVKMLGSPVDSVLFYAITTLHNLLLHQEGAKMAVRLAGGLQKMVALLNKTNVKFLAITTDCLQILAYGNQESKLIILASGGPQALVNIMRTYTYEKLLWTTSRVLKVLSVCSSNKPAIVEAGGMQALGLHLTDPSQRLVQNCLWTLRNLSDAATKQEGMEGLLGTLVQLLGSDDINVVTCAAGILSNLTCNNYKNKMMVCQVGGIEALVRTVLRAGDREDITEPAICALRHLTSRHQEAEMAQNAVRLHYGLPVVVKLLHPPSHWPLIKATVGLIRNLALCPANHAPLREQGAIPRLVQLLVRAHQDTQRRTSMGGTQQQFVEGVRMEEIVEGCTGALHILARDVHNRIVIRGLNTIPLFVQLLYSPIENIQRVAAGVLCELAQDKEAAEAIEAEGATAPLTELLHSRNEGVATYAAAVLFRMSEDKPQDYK


What was measured:
Conditions in all cases: both partners purified
[1] = target: T1, ARM repeat domain of human β-catenin …; assay: ITC; β-catenin 2–4 µM in the cell, TCF7L2 18–40 µM in the syringe; PBS, 1 mM DTT, 30 °C; one-site binding fit
[2] = target: T1, ARM repeat domain of human β-catenin …; assay: fluorescence spectroscopy kinetics (dissociation, fluorimeter); pre-formed 1:1 complex of labelled TCF7L2 and β-catenin mixed 1:1 with 50-times molar excess of unlabelled TCF7L2; PBS, 1 mM DTT, 15 °C; fitted to sums of exponential phases
[3] = target: T1, ARM repeat domain of human β-catenin …; assay: stopped-flow fluorescence kinetics (association); 10 nM fluorescein-labelled TCF7L2 mixed 1:1 with 100–1000 nM unlabelled β-catenin, pseudo-first-order; PBS, 1 mM DTT, 15 °C; kon from the linear fit of kobs against β-catenin concentration
[4] = target: T1, ARM repeat domain of human β-catenin …; assay: stopped-flow fluorescence kinetics (dissociation); pre-formed 1:1 complex (200 nM) of labelled TCF7L2 and β-catenin mixed 1:1 with 50-times molar excess of unlabelled TCF7L2 (10 µM); PBS, 1 mM DTT, 15 °C; fitted to sums of exponential phases

| binding result [1] | koff,major (major slow phase of biphasic dissociation) [2] [s⁻¹] | koff,minor (minor fast phase of biphasic dissociation) [2] [s⁻¹] | kon [3] [M⁻¹ s⁻¹] | koff,major (major slow phase of biphasic dissociation) [4] [s⁻¹] | koff,minor (minor fast phase of biphasic dissociation) [4] [s⁻¹] | Binder |
| --- | --- | --- | --- | --- | --- | --- |
| binds |  |  |  |  |  | TCF7L2 (1–54), wild type, unlabelled (domain or fragment, UniProt Q9NQB0 1-54, looked up, also called wild-type TCF7L2 (1–54); source: E. coli C41, purified (Ni-NTA, thrombin cleavage, Superdex 75)) MPQLNGGGGDDLGANDELISFKDEGEQEEKSSENSSAERDLADVKSSLVNESET |
|  | 0.00219 ± 0.4 | 0.015 ± 1.3 | 1.031e+08 ± 0.19 |  |  | TCF7L2 (1–54) S31C K45A, fluorescein-labelled (domain or fragment, UniProt Q9NQB0 1-54, looked up, One extra serine is left behind after thrombin cleavage of the tag; source: E. coli C41, purified (Ni-NTA, thrombin cleavage, Superdex 75), labelled with fluorescein maleimide) MPQLNGGGGDDLGANDELISFKDEGEQEEKC(fluorescein maleimide)SENSSAERDLADVASSLVNESET |
|  |  |  | 5.05e+07 ± 0.46 | 0.0742 ± 8 | 0.498 ± 70 | TCF7L2 (1–54) S31C V44A, fluorescein-labelled (domain or fragment, UniProt Q9NQB0 1-54, looked up, One extra serine is left behind after thrombin cleavage of the tag; source: E. coli C41, purified (Ni-NTA, thrombin cleavage, Superdex 75), labelled with fluorescein maleimide) MPQLNGGGGDDLGANDELISFKDEGEQEEKC(fluorescein maleimide)SENSSAERDLADAKSSLVNESET |
|  | 0.000474 ± 0.3 | 0.00166 ± 0.16 | 5.59e+07 ± 0.22 |  |  | TCF7L2 (1–54) S31C E26A, fluorescein-labelled (domain or fragment, UniProt Q9NQB0 1-54, looked up, One extra serine is left behind after thrombin cleavage of the tag; source: E. coli C41, purified (Ni-NTA, thrombin cleavage, Superdex 75), labelled with fluorescein maleimide) MPQLNGGGGDDLGANDELISFKDEGAQEEKC(fluorescein maleimide)SENSSAERDLADVKSSLVNESET |
|  | 0.000503 ± 0.4 | 0.00153 ± 0.21 | 6.05e+07 ± 0.12 |  |  | TCF7L2 (1–54) S31C E24A, fluorescein-labelled (domain or fragment, UniProt Q9NQB0 1-54, looked up, One extra serine is left behind after thrombin cleavage of the tag; source: E. coli C41, purified (Ni-NTA, thrombin cleavage, Superdex 75), labelled with fluorescein maleimide) MPQLNGGGGDDLGANDELISFKDAGEQEEKC(fluorescein maleimide)SENSSAERDLADVKSSLVNESET |
|  |  |  | 5.95e+07 ± 0.24 | 0.0993 ± 17 | 0.616 ± 111 | TCF7L2 (1–54) S31C L41A, fluorescein-labelled (domain or fragment, UniProt Q9NQB0 1-54, looked up, One extra serine is left behind after thrombin cleavage of the tag; source: E. coli C41, purified (Ni-NTA, thrombin cleavage, Superdex 75), labelled with fluorescein maleimide) MPQLNGGGGDDLGANDELISFKDEGEQEEKC(fluorescein maleimide)SENSSAERDAADVKSSLVNESET |
|  |  |  | 7.04e+07 ± 0.52 | 0.011 ± 0.5 | 0.207 ± 10 | TCF7L2 (1–54) S31C I19A, fluorescein-labelled (domain or fragment, UniProt Q9NQB0 1-54, looked up, One extra serine is left behind after thrombin cleavage of the tag; also called TCF7L2 I19A; source: E. coli C41, purified (Ni-NTA, thrombin cleavage, Superdex 75), labelled with fluorescein maleimide) MPQLNGGGGDDLGANDELASFKDEGEQEEKC(fluorescein maleimide)SENSSAERDLADVKSSLVNESET |
|  | 0.000539 ± 0.5 | 0.00261 ± 0.28 | 6.2e+07 ± 0.19 |  |  | TCF7L2 (1–54) S31C E38A, fluorescein-labelled (domain or fragment, UniProt Q9NQB0 1-54, looked up, One extra serine is left behind after thrombin cleavage of the tag; source: E. coli C41, purified (Ni-NTA, thrombin cleavage, Superdex 75), labelled with fluorescein maleimide) MPQLNGGGGDDLGANDELISFKDEGEQEEKC(fluorescein maleimide)SENSSAARDLADVKSSLVNESET |
|  | 0.000425 ± 0.29 | 0.00173 ± 0.14 | 6.13e+07 ± 0.34 |  |  | TCF7L2 (1–54) S31C E24A E29A, fluorescein-labelled (domain or fragment, UniProt Q9NQB0 1-54, looked up, One extra serine is left behind after thrombin cleavage of the tag; also called double mutant; source: E. coli C41, purified (Ni-NTA, thrombin cleavage, Superdex 75), labelled with fluorescein maleimide) MPQLNGGGGDDLGANDELISFKDAGEQEAKC(fluorescein maleimide)SENSSAERDLADVKSSLVNESET |
|  | 0.000442 ± 0.15 | 0.00365 ± 0.83 | 6.25e+07 ± 0.23 |  |  | TCF7L2 (1–54) S31C N15A, fluorescein-labelled (domain or fragment, UniProt Q9NQB0 1-54, looked up, One extra serine is left behind after thrombin cleavage of the tag; source: E. coli C41, purified (Ni-NTA, thrombin cleavage, Superdex 75), labelled with fluorescein maleimide) MPQLNGGGGDDLGAADELISFKDEGEQEEKC(fluorescein maleimide)SENSSAERDLADVKSSLVNESET |
|  | 0.000496 ± 0.35 | 0.00116 ± 0.28 | 5.84e+07 ± 0.35 |  |  | TCF7L2 (1–54) S31C E28A, fluorescein-labelled (domain or fragment, UniProt Q9NQB0 1-54, looked up, One extra serine is left behind after thrombin cleavage of the tag; source: E. coli C41, purified (Ni-NTA, thrombin cleavage, Superdex 75), labelled with fluorescein maleimide) MPQLNGGGGDDLGANDELISFKDEGEQAEKC(fluorescein maleimide)SENSSAERDLADVKSSLVNESET |
|  | 0.000897 ± 0.44 | 0.00245 ± 0.21 | 5.73e+07 ± 0.43 |  |  | TCF7L2 (1–54) S31C E29A, fluorescein-labelled (domain or fragment, UniProt Q9NQB0 1-54, looked up, One extra serine is left behind after thrombin cleavage of the tag; source: E. coli C41, purified (Ni-NTA, thrombin cleavage, Superdex 75), labelled with fluorescein maleimide) MPQLNGGGGDDLGANDELISFKDEGEQEAKC(fluorescein maleimide)SENSSAERDLADVKSSLVNESET |
| binds |  |  |  |  |  | TCF7L2 (1–54) S31C, unlabelled (domain or fragment, UniProt Q9NQB0 1-54, looked up, One extra serine is left behind after thrombin cleavage of the tag; also called WT; pseudo-wild type; source: E. coli C41, purified (Ni-NTA, thrombin cleavage, Superdex 75)) MPQLNGGGGDDLGANDELISFKDEGEQEEKCSENSSAERDLADVKSSLVNESET |
|  | 0.000573 ± 0.4 | 0.00152 ± 0.28 | 7.33e+07 ± 0.14 |  |  | TCF7L2 (1–54) S31C, labelled with fluorescein maleimide at Cys31 (domain or fragment, UniProt Q9NQB0 1-54, looked up, One extra serine is left behind after thrombin cleavage of the tag; also called fluorescein-labelled WT; fluorescent-labelled WT TCF7L2 (1–54); source: E. coli C41, purified (Ni-NTA, thrombin cleavage, Superdex 75), labelled with fluorescein maleimide) MPQLNGGGGDDLGANDELISFKDEGEQEEKC(fluorescein maleimide)SENSSAERDLADVKSSLVNESET |
|  | 0.00132 ± 0.1 | 0.00424 ± 0.13 | 5.67e+07 ± 0.6 |  |  | TCF7L2 (1–54) S31C L48A, fluorescein-labelled (domain or fragment, UniProt Q9NQB0 1-54, looked up, One extra serine is left behind after thrombin cleavage of the tag; source: E. coli C41, purified (Ni-NTA, thrombin cleavage, Superdex 75), labelled with fluorescein maleimide) MPQLNGGGGDDLGANDELISFKDEGEQEEKC(fluorescein maleimide)SENSSAERDLADVKSSAVNESET |
|  | 0.00891 ± 2.9 | 0.0283 ± 1.9 | 6.3e+07 ± 0.42 |  |  | TCF7L2 (1–54) S31C E17A, fluorescein-labelled (domain or fragment, UniProt Q9NQB0 1-54, looked up, One extra serine is left behind after thrombin cleavage of the tag; source: E. coli C41, purified (Ni-NTA, thrombin cleavage, Superdex 75), labelled with fluorescein maleimide) MPQLNGGGGDDLGANDALISFKDEGEQEEKC(fluorescein maleimide)SENSSAERDLADVKSSLVNESET |
|  | 0.0003 ± 0.16 | 0.00239 ± 0.7 | 5.31e+07 ± 0.25 |  |  | TCF7L2 (1–54) S31C D23A, fluorescein-labelled (domain or fragment, UniProt Q9NQB0 1-54, looked up, One extra serine is left behind after thrombin cleavage of the tag; source: E. coli C41, purified (Ni-NTA, thrombin cleavage, Superdex 75), labelled with fluorescein maleimide) MPQLNGGGGDDLGANDELISFKAEGEQEEKC(fluorescein maleimide)SENSSAERDLADVKSSLVNESET |
|  | 0.000977 ± 0.75 | 0.00264 ± 0.2 | 7.19e+07 ± 0.13 |  |  | TCF7L2 (1–54) S31C L12A, fluorescein-labelled (domain or fragment, UniProt Q9NQB0 1-54, looked up, One extra serine is left behind after thrombin cleavage of the tag; source: E. coli C41, purified (Ni-NTA, thrombin cleavage, Superdex 75), labelled with fluorescein maleimide) MPQLNGGGGDDAGANDELISFKDEGEQEEKC(fluorescein maleimide)SENSSAERDLADVKSSLVNESET |
|  |  |  | 4.82e+07 ± 0.17 | 0.0258 ± 2 | 0.423 ± 15 | TCF7L2 (1–54) S31C F21A, fluorescein-labelled (domain or fragment, UniProt Q9NQB0 1-54, looked up, One extra serine is left behind after thrombin cleavage of the tag; source: E. coli C41, purified (Ni-NTA, thrombin cleavage, Superdex 75), labelled with fluorescein maleimide) MPQLNGGGGDDLGANDELISAKDEGEQEEKC(fluorescein maleimide)SENSSAERDLADVKSSLVNESET |
|  | 0.000295 ± 0.23 | 0.00234 ± 0.33 | 4.26e+07 ± 0.17 |  |  | TCF7L2 (1–54) S31C D23A E24A E26A E28A E29A (5X), fluorescein-labelled (domain or fragment, UniProt Q9NQB0 1-54, looked up, One extra serine is left behind after thrombin cleavage of the tag; also called quintuple mutant; 5X variant; source: E. coli C41, purified (Ni-NTA, thrombin cleavage, Superdex 75), labelled with fluorescein maleimide) MPQLNGGGGDDLGANDELISFKAAGAQAAKC(fluorescein maleimide)SENSSAERDLADVKSSLVNESET |
